# Measurements as given in the RNAGym collection of RNA variant scans (doi:10.7554/elife.80360).
# B1: CPEB3 Ribozyme (parent)
# chain: GGGGGCCACAGCAGAAGCGUUCACGUCGCGGCCCCUGUCAGAUUCUGGUGAAUCUGCGAAUUCUGCUGU
# Variants of: B1
# Assay: self-cleavage, relative activity (ratio to wild type); higher = more cleavage; co-transcriptional
row,Variant,self-cleavage
1,A42U C66U,0.876
2,A42U C66A,0.461
3,A42G U55C,0.492
4,A42G U55A,0.543
5,A42G C66U,0.93
6,A42G C66G,0.622
7,A42G C66A,0.558
8,G41C U69G,0.959
9,G41C U69C,1.01
10,G41C A42C,0.26
11,G41C A42U,0.504
12,A42C C66U,0.96
13,A42C C66G,0.661
14,G41A G68C,0.881
15,G41A G68U,0.913
16,G41A U67G,0.777
17,G41A U67A,0.756
18,G41C U49C,0.871
19,G41C U49A,0.988
20,A42U A60C,0.219
21,A42U A60G,0.74
22,A42U A60U,0.436
23,G41U A60U,0.374
24,G41U A60G,0.612

row,Variant,self-cleavage
1,G41A G65U,0.379
2,G41A G65C,0.261
3,G41C C57U,0.329
4,G41U U49C,0.849
5,A42G U53A,0.895
6,A42G U53G,0.801
7,G41A U64G,0.501
8,G41A U64C,0.385
9,A42U G47U,1.02
10,A42U G47C,0.993
11,A42G A51U,0.799
12,A42G A51C,0.672
13,G41C C63A,0.296
14,U43A U49C,0.939
15,U43A U49G,0.955
16,U43A U49A,0.944
17,A42G U44A,0.822
18,A42G U44C,0.562
19,A42U U67G,0.951
20,A42U U67A,0.95
21,A42U U43A,0.914
22,G41U A59G,0.933
23,G41U A59C,0.412
24,G41U G50C,0.54

row,Variant,self-cleavage
1,G41U C66G,0.428
2,G41U C66A,0.441
3,A42C G68U,1.01
4,A42C G68A,1
5,A42C G68C,0.963
6,A42G A59U,0.735
7,A42G A59C,0.577
8,A42G A59G,0.81
9,A42U U44A,0.898
10,G41A U55A,0.596
11,G41A U55G,0.379
12,G41C U67G,0.787
13,G41C U67A,0.716
14,A42G U61G,0.359
15,A42U C54G,0.56
16,A42U C54A,0.834
17,A42G U67A,0.86
18,A42G U67C,0.957
19,A42G U67G,0.897
20,A42C U62C,0.659
21,A42C U62A,0.673
22,A42C U62G,0.757
23,A42U A59G,0.965
24,G41C U46A,0.921

row,Variant,self-cleavage
1,G41A U61G,0.331
2,G41A U61A,0.463
3,A42U,0.965
4,A42C,0.961
5,A42G,0.951
6,G41C C66G,0.369
7,A42G U43G,0.565
8,A42G U43C,0.935
9,A42G U43A,0.853
10,U43A U53G,0.773
11,G41U C63U,0.691
12,G41C G48U,0.966
13,G41C G48C,0.869
14,A42C U55A,0.595
15,A42C U55C,0.328
16,A42C U55G,0.285
17,A42U G68A,0.956
18,G41U G65U,0.366
19,G41U G65A,0.438
20,A42U G48A,0.968
21,A42U G48C,0.947
22,G41U G48U,0.99
23,G41U G48C,0.952
24,G41C U64G,0.426

row,Variant,self-cleavage
1,G41C U64A,0.369
2,G41C A51C,0.43
3,G41C A51U,0.542
4,A42C U43G,0.703
5,A42C U43A,0.778
6,G41C G58A,0.772
7,G41U U69A,0.995
8,G41U U69G,1.02
9,G41A U44G,0.307
10,G41U A52C,0.431
11,G41U A52G,0.749
12,G41C U62C,0.365
13,G41C U62G,0.363
14,A42C U53A,1.03
15,A42C U67C,0.97
16,A42C U67A,0.964
17,G41U U46A,0.947
18,G41U U46G,0.887
19,G41U U46C,0.752
20,U43A G48U,0.983
21,U43A G48A,1.04
22,G41A U62G,0.422
23,G41A U62A,0.474
24,G41A U62C,0.383

row,Variant,self-cleavage
1,A42C C54G,0.73
2,A42U U46C,0.781
3,A42C U46G,0.929
4,A42U U53A,1.02
5,A42U U53G,1
6,A42G U69G,1.03
7,A42G U69C,1.04
8,A42U U62G,0.738
9,A42U U62C,0.721
10,A42U U62A,0.809
11,A42G C57U,0.356
12,G41U G58U,0.939
13,G41U G58A,0.935
14,G41U G58C,0.94
15,U43A C63A,0.504
16,U43A C63G,0.45
17,A42G G50U,0.887
18,A42C G65A,0.627
19,A42C G50C,0.858
20,A42C G50A,0.952
21,G41U G68C,0.93
22,G41U G68A,0.931
23,G41U G68U,0.972
24,U43A G65C,0.349

row,Variant,self-cleavage
1,U43A G65A,0.49
2,U43A G65U,0.392
3,G41U U62C,0.384
4,G41U U62A,0.506
5,A42U U69C,1.04
6,A42U U69A,1
7,A42C C45A,0.851
8,A42C C45U,0.937
9,A42C C45G,0.819
10,A42C A51G,0.852
11,G41C G56A,0.667
12,G41C G56U,0.369
13,G41C G65U,0.327
14,G41C G65A,0.426
15,A42C A52U,0.96
16,A42C A52G,0.919
17,A42C A52C,0.803
18,U43A C57U,0.41
19,U43A C57A,0.271
20,G41U U55G,0.324
21,G41C C45A,0.34
22,G41C C45U,0.501
23,G41C C45G,0.38
24,G41C G68A,0.927

row,Variant,self-cleavage
1,G41C G68U,0.933
2,G41C G68C,0.902
3,G41U C45A,0.422
4,G41U C45G,0.47
5,G41U G56A,0.581
6,A42G C45A,1.01
7,A42G C45U,0.927
8,U43A U46G,0.943
9,U43A U46C,0.952
10,U43A U46A,0.958
11,U43A G68C,1.01
12,U43A G68U,0.973
13,U43A C54G,0.418
14,U43A C54A,0.599
15,U43A G56A,0.641
16,U43A G56C,0.336
17,U43A G56U,0.427
18,A42G U49A,0.938
19,A42G U49G,0.96
20,A42G U49C,0.901
21,A42U A52U,0.986
22,A42U A52G,0.88
23,A42U A52C,0.945
24,U43A G58U,0.946

row,Variant,self-cleavage
1,U43A G58A,0.929
2,A42C C57U,0.376
3,A42C C57G,0.342
4,A42C C57A,0.398
5,G41U U43G,0.267
6,G41U U43A,0.3
7,G41U U43C,0.357
8,G41A C63G,0.348
9,G41A C63U,0.59
10,A42C G58C,1.04
11,U43A G47C,0.954
12,U43A G47U,0.987
13,U43A G47A,0.972
14,A42U U64G,0.722
15,A42U U64A,0.726
16,U43A A51U,0.939
17,U43A A51G,0.928
18,G41A U43A,0.335
19,G41A U43C,0.416
20,U43A U44C,0.987
21,U43A U44A,0.888
22,U43A U44G,0.957
23,G41C G47A,0.904
24,A42G G56A,0.761

row,Variant,self-cleavage
1,A42G G56C,0.475
2,A42U G50C,0.809
3,A42U G50U,0.937
4,A42G G47U,0.988
5,A42G G47A,0.955
6,G41C U44G,0.317
7,G41C U44A,0.377
8,G41C U44C,0.342
9,A42U G65A,0.661
10,A42U G65C,0.433
11,A42U G65U,0.481
12,A42G C63U,0.889
13,A42G C63G,0.583
14,A42G C63A,0.617
15,U43A C45U,1.03
16,U43A C45A,0.859
17,G41C A59G,0.845
18,G41C A59C,0.225
19,A42G G48C,0.989
20,A42G G48U,0.948
21,G41C U43A,0.31
22,G41C U43G,0.25
23,G41C U43C,0.486
24,U43A A52U,0.926

row,Variant,self-cleavage
1,A42C G47A,0.921
2,G41A U46C,0.706
3,G41A U46A,0.863
4,G41C U61G,0.345
5,G41C U61C,0.241
6,U43A G50U,0.959
7,U43A G50C,0.91
8,U43A G50A,0.962
9,A42U G56U,0.517
10,A42U G56A,0.799
11,G41C U55C,0.394
12,U43A C66A,0.416
13,U43A C66U,0.831
14,A42U G58C,0.97
15,A42U G58A,0.923
16,A42U A51C,0.839
17,A42U A51U,0.914
18,G41A U53G,0.566
19,G41A U53A,0.65
20,U43A,0.953
21,G41C A52C,0.332
22,A42G A60G,0.85
23,G41C A60U,0.366
24,G41C A60C,0.262

row,Variant,self-cleavage
1,G41C A60G,0.304
2,A42U U55G,0.276
3,A42U U55A,0.485
4,G41U U61C,0.402
5,G41U U61A,0.64
6,G41U U61G,0.314
7,U43A A60G,0.683
8,U43A A60U,0.29
9,A42G G65U,0.605
10,A42G G65A,0.639
11,A42G G65C,0.508
12,A42U C57U,0.436
13,A42G U62C,0.647
14,G41A G47C,0.913
15,A42C C63G,0.542
16,A42C C63A,0.547
17,A42G G58A,0.951
18,A42G G58C,0.894
19,G41U G47U,0.999
20,G41U G47C,0.967
21,A42U U49G,0.957
22,A42U U49C,0.915
23,A42U C63U,0.876
24,G41C U53A,0.463

row,Variant,self-cleavage
1,G41C U53C,0.283
2,G41A U69C,1.03
3,G41A U69A,0.912
4,G41A U69G,1
5,A42C U44C,0.736
6,A42C U44A,0.83
7,A42C U44G,0.816
8,A42C U69A,1.02
9,A42C U69C,1.05
10,A42C U69G,1.01
11,G41U U44G,0.336
12,G41U U44A,0.339
13,G41U U53C,0.364
14,G41U U53G,0.604
15,A42U U61A,0.744
16,A42U U61G,0.448
17,G41A C66G,0.429
18,G41A G48A,0.989
19,A42C A60U,0.459
20,A42C U61C,0.477
21,A42C U61A,0.742
22,A42C U49A,0.974
23,A42C U49G,0.964
24,A42G A52U,0.718

row,Variant,self-cleavage
1,A42G A52C,0.854
2,G41U U67C,0.872
3,G41U C54G,0.95
4,G41U C54U,0.94
5,G41U C54A,0.972
6,G41A U49G,0.859
7,G41A U49C,0.825
8,A42G U46A,0.935
9,A42G U46G,0.941
10,G41U A51U,0.609
11,G41U A51G,0.837
12,A42C G56U,0.568
13,A42C G56C,0.325
14,G41U U64G,0.441
15,G41U U64C,0.382
16,G41U U64A,0.501
17,A42G C54U,0.799
18,G41A G56C,0.31
19,G41A G56U,0.307
20,G41A G50A,0.707
21,A42C U64A,0.625
22,A42C U64G,0.769
